Test results published in publication PMC4703965, “Inhibition of Canonical NF-κB Signaling by a Small Molecule Targeting NEMO-Ubiquitin Interaction” (Scientific Reports, 2016).
Changes are numbered by the printed parent chain. Names and notes keep the numbering of the source. Each block holds one binder with its values, some of them ahead of it.

Legend:
[1] = molecular target: the molecule itself; assay: SEC-MALS; size exclusion chromatography (SEC) in combination with static light scattering (SLS); in solution
[2] = molecular target: T1, linear Ub2 (UniProt P0CG48 1-76; P0CG48 1-76); assay: NMR titration; 1H,15N TROSY of 100 μM 15N-labeled NEMO_(UBAN) (258–350) without or with unlabeled linear Ub2 at 2:1 (NEMO_(UBAN):Ub2); details: both partners purified
T1 construct: ubiquitin, distal moiety of Met1-linked linear di-ubiquitin (two ubiquitins head to tail on one chain); ubiquitin, proximal moiety of Met1-linked linear di-ubiquitin; also called linUb2; methionine-1-linked linear di-ubiquitin; source: recombinant

[3] = molecular target: T1, linear Ub2; assay: MST + ITC; Microscale Thermophoresis and Isothermal Titration Calorimetry of NEMO_(UBAN) C347S with linUb2; conditions not shown; details: both partners purified
[4] = molecular target: the molecule itself; assay: SAXS; 293 K; 300 mM NaCl, 50 mM Tris-HCl pH 8.0; NEMO_(UBAN) C347S 2.8–9.9 mg/ml; NEMO_(UBAN) C347S and linear Ub2 mixed 2:1 (3.5–12.9 mg/ml) and 2:2 (4.9–12.1 mg/ml)

- binding result [2]: binds
B1: NEMO_(UBAN) (258–350) (domain or fragment, UniProt Q9Y6K9 258-350, looked up)
chain: MQLEDLKQQLQQAEEALVAKQEVIDKLKEEAEQHKIVMETVPVLKAQADIYKADFQAERQAREKLAEKKELLQEQLEQLQREYSKLKASCQES
notes: NEMO (IKKγ, NF-κB essential modulator), UBAN / CC2-LZ region, residues 258–350; 15N-labelled for the NMR experiment; The His6 tag was cleavable by 3C or TEV protease; also called NEMO_(258–350); NEMO_(UBAN) WT; source: cloned into pET vectors, recombinant, purified (details in the Supporting Information); not shown: His6, N-terminal, cleaved
- stoichiometry N [1]: 2

- Kd [3]: 1000 to 2000 nM
B2: NEMO_(UBAN) C347S (258–350) (domain or fragment, UniProt Q9Y6K9 258-350, looked up)
chain: B1 chain with C90S
notes: NEMO (IKKγ), UBAN / CC2-LZ region, residues 258–350 with C347S; Used for SAXS, for MST/ITC and unlabelled in the NMR experiments with 15N-linUb2; also called NEMO_(258–350) C347S; source: cloned into pET vectors, recombinant, purified (details in the Supporting Information); not shown: His6, N-terminal, cleaved
- stoichiometry N [4]: 2
